Experimental data published in patent US5294543.

Biological target: fibrinogen receptor on platelets (Homo sapiens (Human)) (UniProt P08514)

chrysoptin
IC50 of inhibition of platelet aggregation induced by 5 µM ADP: 16 nM
